The text below walks through data of patent US20070298494.

This data set in a line: BS3 chemical cross-linking in solution, SDS-PAGE, silver stain; association of the peptide with itself.

For KKKKPARVGLGITTVLTMTTQSSGSRA [N-K4-M2GlyR], the number of aggregates entry is reported as “SEQ ID No. 3 comprised 12 or more aggregates”.
